In PMC10403316:
Values joined by “and” are separate entries in the source; they are usually repeats but may differ in a detail not shown here. Equal entries are not always repeated.

Key:
[1] = molecular target: human UBR5 E3 ubiquitin ligase, full length, with an N-terminal FLAG tag (human) (UniProt O95071); experiment: SEC; details: remark: other sources report otherwise
[2] = molecular target: human UBR5 E3 ubiquitin ligase, full length, with an N-terminal FLAG tag (human) (UniProt O95071); experiment: cryo-EM structure; details: remark: other sources report otherwise

- stoichiometry N [1]: 2 and 4
- stoichiometry N [2]: 2
Substance: human UBR5 E3 ubiquitin ligase, full length, with an N-terminal FLAG tag, O95071 1-2799
